In the RNAGym collection of RNA variant scans (doi:10.1093/nar/gkz1192):

B1: CPEB3 Ribozyme (parent)
chain: UAACAGGGGGCCACAGCAGAAGCGUUCACGUCGCAGCCCCUGUCAGAUUCUGGUGAAUCUGCGAAUUCUGCUGUAUAUCUC

Variants of: B1
Test: self-cleavage, relative activity (ratio to wild type); higher = more cleavage; in vitro, sequencing
Method in brief: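 After error-prone PCR and barcoding, CPEB3 ribozyme mutant libraries were transcribed with T7 RNA polymerase at 37°C for 5 hours, then given 15 min with DNase I before an EDTA stop, and they cleaved during both steps. Reverse transcription with template switching preceded Illumina sequencing. Relative activity divides a variant's cleaved/total read fraction by the unmutated ribozyme's. At least 5 reads were required per variant, and three batches were averaged.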

Point of comparison: UAACAGGGGGCCGCAGCAGAAGCGUUCACGUCGCAGCCCCUGUCAGAUUCUGGUGAAUCGGCGAAUUCUGCUGUAUAUCUC [A13G U60G], self-cleavage 0.32. Against it:
- UAACAGGGGGCCGCAGCAGAAGCGUGCACGUCGCAGCCCCUGUCAGAUUCUGGUGAAUCUGCGAAUUCUGCUGUAUAUCUC [A13G U26G] — lower, 0.21
- UAACAGGGGGCCGCAGCAGAAGCGUUCACGACGCAGCCCCUGUCAGAUUCUGGUGAAUCUGCGAAUUCUGCUGUAUAUCUC [A13G U31A] — higher, 0.5
- UAACAGGGGGCCGCAGCAGAAGCGUUCACGCCGCAGCCCCUGUCAGAUUCUGGUGAAUCUGCGAAUUCUGCUGUAUAUCUC [A13G U31C] — higher, 0.45
- UAACAGGGGGCCGCAGCAGAAGCGUUCACGGCGCAGCCCCUGUCAGAUUCUGGUGAAUCUGCGAAUUCUGCUGUAUAUCUC [A13G U31G] — higher, 0.51
- UAACAGGGGGCCGCAGCAGAAGCGUUCACGUCGCAGCCCCAGUCAGAUUCUGGUGAAUCUGCGAAUUCUGCUGUAUAUCUC [A13G U41A] — lower, 0.27
- UAACAGGGGGCCGCAGCAGAAGCGUUCACGUCGCAGCCCCCGUCAGAUUCUGGUGAAUCUGCGAAUUCUGCUGUAUAUCUC [A13G U41C] — higher, 0.79
- UAACAGGGGGCCGCAGCAGAAGCGUUCACGUCGCAGCCCCGGUCAGAUUCUGGUGAAUCUGCGAAUUCUGCUGUAUAUCUC [A13G U41G] — higher, 0.37
- UAACAGGGGGCCGCAGCAGAAGCGUUCACGUCGCAGCCCCUGACAGAUUCUGGUGAAUCUGCGAAUUCUGCUGUAUAUCUC [A13G U43A] — higher, 0.93
- UAACAGGGGGCCGCAGCAGAAGCGUUCACGUCGCAGCCCCUGCCAGAUUCUGGUGAAUCUGCGAAUUCUGCUGUAUAUCUC [A13G U43C] — higher, 0.49
- UAACAGGGGGCCGCAGCAGAAGCGUUCACGUCGCAGCCCCUGGCAGAUUCUGGUGAAUCUGCGAAUUCUGCUGUAUAUCUC [A13G U43G] — lower, 0.27
- UAACAGGGGGCCGCAGCAGAAGCGUUCACGUCGCAGCCCCUGUCAGAAUCUGGUGAAUCUGCGAAUUCUGCUGUAUAUCUC [A13G U48A] — lower, 0.31
- UAACAGGGGGCCGCAGCAGAAGCGUUCACGUCGCAGCCCCUGUCAGACUCUGGUGAAUCUGCGAAUUCUGCUGUAUAUCUC [A13G U48C] — higher, 0.44
- UAACAGGGGGCCGCAGCAGAAGCGUUCACGUCGCAGCCCCUGUCAGAUACUGGUGAAUCUGCGAAUUCUGCUGUAUAUCUC [A13G U49A] — higher, 0.41
- UAACAGGGGGCCGCAGCAGAAGCGUUCACGUCGCAGCCCCUGUCAGAUCCUGGUGAAUCUGCGAAUUCUGCUGUAUAUCUC [A13G U49C] — lower, 0.25
- UAACAGGGGGCCGCAGCAGAAGCGUUCACGUCGCAGCCCCUGUCAGAUUCAGGUGAAUCUGCGAAUUCUGCUGUAUAUCUC [A13G U51A] — higher, 0.91
- UAACAGGGGGCCGCAGCAGAAGCGUUCACGUCGCAGCCCCUGUCAGAUUCCGGUGAAUCUGCGAAUUCUGCUGUAUAUCUC [A13G U51C] — higher, 0.85
- UAACAGGGGGCCGCAGCAGAAGCGUUCACGUCGCAGCCCCUGUCAGAUUCGGGUGAAUCUGCGAAUUCUGCUGUAUAUCUC [A13G U51G] — higher, 0.84
- UAACAGGGGGCCGCAGCAGAAGCGUUCACGUCGCAGCCCCUGUCAGAUUCUGGAGAAUCUGCGAAUUCUGCUGUAUAUCUC [A13G U54A] — higher, 1.07
- UAACAGGGGGCCGCAGCAGAAGCGUUCACGUCGCAGCCCCUGUCAGAUUCUGGCGAAUCUGCGAAUUCUGCUGUAUAUCUC [A13G U54C] — higher, 0.92
- UAACAGGGGGCCGCAGCAGAAGCGUUCACGUCGCAGCCCCUGUCAGAUUCUGGGGAAUCUGCGAAUUCUGCUGUAUAUCUC [A13G U54G] — higher, 0.76
- UAACAGGGGGCCGCAGCAGAAGCGUUCACGUCGCAGCCCCUGUCAGAUUCUGGUGAACCUGCGAAUUCUGCUGUAUAUCUC [A13G U58C] — higher, 0.46
- UAACAGGGGGCCGCAGCAGAAGCGUUCACGUCGCAGCCCCUGUCAGAUUCUGGUGAAGCUGCGAAUUCUGCUGUAUAUCUC [A13G U58G] — lower, 0.2
- UAACAGGGGGCCGCAGCAGAAGCGUUCACGUCGCAGCCCCUGUCAGAUUCUGGUGAAUCAGCGAAUUCUGCUGUAUAUCUC [A13G U60A] — higher, 0.43
- UAACAGGGGGCCGCAGCAGAAGCGUUCACGUCGCAGCCCCUGUCAGAUUCUGGUGAAUCCGCGAAUUCUGCUGUAUAUCUC [A13G U60C] — higher, 0.38
- UAACAGGGGGCCGCAGCAGAAGCGUUCACGUCGCAGCCCCUGUCAGAUUCUGGUGAAUCUGCGAAAUCUGCUGUAUAUCUC [A13G U66A] — higher, 0.45
- UAACAGGGGGCCGCAGCAGAAGCGUUCACGUCGCAGCCCCUGUCAGAUUCUGGUGAAUCUGCGAACUCUGCUGUAUAUCUC [A13G U66C] — higher, 0.35
- UAACAGGGGGCCGCAGCAGAAGCGUUCACGUCGCAGCCCCUGUCAGAUUCUGGUGAAUCUGCGAAGUCUGCUGUAUAUCUC [A13G U66G] — lower, 0.31
- UAACAGGGGGCCGCAGCAGAAGCGUUCACGUCGCAGCCCCUGUCAGAUUCUGGUGAAUCUGCGAAUACUGCUGUAUAUCUC [A13G U67A] — higher, 0.43
- UAACAGGGGGCCGCAGCAGAAGCGUUCACGUCGCAGCCCCUGUCAGAUUCUGGUGAAUCUGCGAAUCCUGCUGUAUAUCUC [A13G U67C] — lower, 0.25
- UAACAGGGGGCCGCAGCAGAAGCGUUCACGUCGCAGCCCCUGUCAGAUUCUGGUGAAUCUGCGAAUUCAGCUGUAUAUCUC [A13G U69A] — higher, 0.38
- UAACAGGGGGCCGCAGCAGAAGCGUUCACGUCGCAGCCCCUGUCAGAUUCUGGUGAAUCUGCGAAUUCCGCUGUAUAUCUC [A13G U69C] — the same, 0.32
- UAACAGGGGGCCGCAGCAGAAGCGUUCACGUCGCAGCCCCUGUCAGAUUCUGGUGAAUCUGCGAAUUCGGCUGUAUAUCUC [A13G U69G] — higher, 0.39
- UAACAGGGGGCCGCAGCAGAAGCGUUCACGUCGCAGCCCCUGUCAGAUUCUGGUGAAUCUGCGAAUUCUGCAGUAUAUCUC [A13G U72A] — higher, 0.54
